Paper doi:10.1101/2021.12.20.473401

Target: SARS-CoV spike glycoprotein (S) (SARS-CoV) (UniProt P59594)
Assay: SPR

VHH-72
Kd: 6.52 nM
